Experimental data: paper PMC10538557, “Vps60 initiates alternative ESCRT-III filaments” (The Journal of Cell Biology, 2023)

T1: Vps2 (UniProt P36108 1-232, TFP-AlexaFluor-488, TFP-Atto-565 or NHS-Atto-647N label, by experiment; labeled proteins were mixed 1:1 with unlabeled proteins)
T1 construct: Vps2, ESCRT-III subunit (human homolog CHMP2A); The yeast protein is surmised from the yeast nomenclature; also called Alexa488-Vps2; Vps2-Alex488
T1 sequence (looked up): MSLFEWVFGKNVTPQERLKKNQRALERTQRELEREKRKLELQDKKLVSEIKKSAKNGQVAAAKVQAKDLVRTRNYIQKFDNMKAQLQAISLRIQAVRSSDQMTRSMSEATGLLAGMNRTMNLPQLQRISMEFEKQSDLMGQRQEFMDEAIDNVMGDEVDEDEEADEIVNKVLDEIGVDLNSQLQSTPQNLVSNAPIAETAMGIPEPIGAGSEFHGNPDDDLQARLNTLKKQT

B1: Vps24 (natural protein, UniProt P36095 1-224, looked up)
chain: MDYIKKAIWGPDPKEQQRRIRSVLRKNGRNIEKSLRELTVLQNKTQQLIKKSAKKNDVRTVRLYAKELYQINKQYDRMYTSRAQLDSVRMKIDEAIRMNTLSNQMADSAGLMREVNSLVRLPQLRNTMIELEKELMKSGIISEMVDDTMESVGDVGEEMDEAVDEEVNKIVEQYTNEKFKNVDQVPTVELAANEEEQEIPDEKVDEEADRMVNEMRERLRALQN
modifications: TFP-AlexaFluor-488 label where detected; labeled proteins were mixed 1:1 with unlabeled proteins
notes: Vps24, ESCRT-III subunit (human homolog CHMP3); The yeast protein is surmised from the yeast nomenclature; also called Alexa488-Vps24
B2: Did2 (natural protein, UniProt P69771 1-204, looked up)
chain: MSRNSAAGLENTLFQLKFTSKQLQKQANKASKEEKQETNKLKRALNENEDISRIYASNAIRKKNERLQLLKLASRVDSVASRVQTAVTMRQVSASMGQVCKGMDKALQNMNLQQITMIMDKFEQQFEDLDTSVNVYEDMGVNSDAMLVDNDKVDELMSKVADENGMELKQSAKLDNVPEIKAKEVNVDDEKEDKLAQRLRALRG
modifications: maleimide-AlexFluor-488 label where detected; labeled proteins were mixed 1:1 with unlabeled proteins
notes: Did2, ESCRT-III subunit (human homolog CHMP1B); The yeast protein is surmised from the yeast nomenclature; also called Alexa488-Did2; Did2-Atto565
B3: Vps60 (natural protein, S. cerevisiae, UniProt Q03390 1-229, looked up)
chain: MNRIFGYGNKKSHDQLLQESNQSMNQAQQSLSNRISQLDTQIAQLNFQLQNIQKNLQRSNNKQPSLRKQALKILNKRKQLENMKDSLDSQSWSMTQAQLTNDNLQNTMITINALKQTNNAMKAQYGKINIDKLQDMQDEMLDLIEQGDELQEVLAMNNNSGELDDISDAELDAELDALAQEDFTLPTSENSLGNDMPSYLLGANAPPAFIDEEPNLDTEDKNKALESAQ
modifications: TFP-Atto-565 label (Atto565-Vps60) in the fluorescence assays; Alexa488-Vps60 also named; labeled proteins were mixed 1:1 with unlabeled proteins
notes: Vps60 (Mos10), ESCRT-III subunit of yeast; construct pGEX4T-Vps60; also called Mos10; Atto565-Vps60; source: Bl21 Escherichia coli (pGEX4T-Vps60), purified on GST-resin, on-column cleavage with TEV protease

Assays:
[1] = molecular target: B3; assay: negative-stain electron microscopy; LUVs (DOPC:DOPS 6:4) in 20 mM Tris, pH 6.8, 200 mM NaCl, 1 mM MgCl2, incubated with 250 nM Vps60 for 1 h at 4°C, alone or with subsets of ESCRT-III subunits (Vps2 and Vps24; Vps2, Vps24 and Did2); filaments imaged after uranyl acetate staining; settings: both partners purified
[2] = molecular target: the molecule itself; assay: as above
[3] = molecular target: T1, Vps2; assay: recruitment on supported lipid bilayers, confocal fluorescence microscopy; SLBs covered with both Alexa488-Snf7 patches and Atto565-Vps60, incubated with Atto647-Vps2, Vps24 and Did2; time-lapse; settings: both partners purified

Row | binding result [1] | binding result [3] | Binder | binding result [2]
1 | binds | – | B1 | –
2 | binds | – | B2 | –
3 | – | binds | B3 | binds
